Where a chain is given by its changes, count along the chain named. Names may count otherwise.
B1: serA416: E. coli PGD variant with replacement G349R (protein, UniProt P0A9T0 2-410, looked up, variant G349R)
D-3-phosphoglycerate …: AKVSLEKDKIKFLLVEGVHQKALESLRAAGYTNIEFHKGALDDEQLKESIRDAHFIGLRSRTHLTEDVINAAEKLVAIGCFCIGTNQVDLDAAAKRGIPVFNAPFSNTRSVAELVIGELLLLLRGVPEANAKAHRGVWNKLAAGSFEARGKKLGIIGYGHIGTQLGILAESLGMYVYFYDIENKLPLGNATQVQHLSDLLNMSDVVSLHVPENPSTKNMMGAKEISLMKPGSLLINASRGTVVDIPALCDALASKHLAGAAIDVFPTEPATNSDPFTSPLCEFDNVLLTPHIGGSTQEAQENIGLEVAGKLIKYSDNGSTLSAVNFPEVSLPLHGGRRLMHIHENRPRVLTALNKIFAEQGVNIAAQYLQTSAQMGYVVIDIEADEDVAEKALQAMKAIPGTIRARLLY
B2: serA417: E. coli PGD variant with replacement G349W (protein, UniProt P0A9T0 2-410, looked up, variant G349W)
D-3-phosphoglycerate …: B1 D-3-phosphoglycerate … with R348W
B3: serA418: E. coli PGD variant with replacement G349Y (protein, UniProt P0A9T0 2-410, looked up, variant G349Y)
D-3-phosphoglycerate …: B1 D-3-phosphoglycerate … with R348Y
B4: serA419: E. coli PGD variant with replacement G349F (protein, UniProt P0A9T0 2-410, looked up, variant G349F)
D-3-phosphoglycerate …: B1 D-3-phosphoglycerate … with R348F
B5: serA420: E. coli PGD variant with replacement G349H (protein, UniProt P0A9T0 2-410, looked up, variant G349H)
D-3-phosphoglycerate …: B1 D-3-phosphoglycerate … with R348H
B6: serA421: E. coli PGD variant with replacement G349N (protein, UniProt P0A9T0 2-410, looked up, variant G349N)
D-3-phosphoglycerate …: B1 D-3-phosphoglycerate … with R348N
B7: serA422: E. coli PGD variant with replacement G349Q (protein, UniProt P0A9T0 2-410, looked up, variant G349Q)
D-3-phosphoglycerate …: B1 D-3-phosphoglycerate … with R348Q
B8: serA445: E. coli PGD variant with replacement G349C (protein, UniProt P0A9T0 2-410, looked up, variant G349C)
D-3-phosphoglycerate …: B1 D-3-phosphoglycerate … with R348C
B9: serA: Escherichia coli wild-type 3-phosphoglycerate dehydrogenase (PGD, SEQ ID NO: 2) encoded by the serA gene (protein, listed as Escherichia coli)
chain: MAKVSLEKDKIKFLLVEGVHQKALESLRAAGYTNIEFHKGALDDEQLKESIRDAHFIGLRSRTHLTEDVINAAEKLVAIGCFCIGTNQVDLDAAAKRGIPVFNAPFSNTRSVAELVIGELLLLLRGVPEANAKAHRGVWNKLAAGSFEARGKKLGIIGYGHIGTQLGILAESLGMYVYFYDIENKLPLGNATQVQHLSDLLNMSDVVSLHVPENPSTKNMMGAKEISLMKPGSLLINASRGTVVDIPALCDALASKHLAGAAIDVFPTEPATNSDPFTSPLCEFDNVLLTPHIGGSTQEAQENIGLEVAGKLIKYSDNGSTLSAVNFPEVSLPLHGGRRLMHIHENRPGVLTALNKIFAEQGVNIAAQYLQTSAQMGYVVIDIEADEDVAEKALQAMKAIPGTIRARLLY
B10: serA40: E. coli PGD variant, mutation at codon 349 printed G349 (G349D per Table 3) (protein, UniProt P0A9T0 2-410, looked up, variant G349D)
D-3-phosphoglycerate …: B1 D-3-phosphoglycerate … with R348D
B11: serA45: E. coli PGD variant with replacement G349I (protein, UniProt P0A9T0 2-410, looked up, variant G349I)
D-3-phosphoglycerate …: B1 D-3-phosphoglycerate … with R348I
B12: serA46: E. coli PGD variant with replacement G349M (protein, UniProt P0A9T0 2-410, looked up, variant G349M)
D-3-phosphoglycerate …: B1 D-3-phosphoglycerate … with R348M
B13: serA47: E. coli PGD variant with replacement G349E (protein, UniProt P0A9T0 2-410, looked up, variant G349E)
D-3-phosphoglycerate …: B1 D-3-phosphoglycerate … with R348E
B14: serA220: E. coli PGD variant with replacement T372S (protein, UniProt P0A9T0 2-410, looked up, variant T372S)
D-3-phosphoglycerate …: B1 D-3-phosphoglycerate … with R348G, T371S
B15: serA208: E. coli PGD variant with replacement T372H (protein, UniProt P0A9T0 2-410, looked up, variant T372H)
D-3-phosphoglycerate …: B1 D-3-phosphoglycerate … with R348G, T371H
B16: serA210: E. coli PGD variant with replacement T372W (protein, UniProt P0A9T0 2-410, looked up, variant T372W)
D-3-phosphoglycerate …: B1 D-3-phosphoglycerate … with R348G, T371W
B17: serA212: E. coli PGD variant with replacement T372F (protein, UniProt P0A9T0 2-410, looked up, variant T372F)
D-3-phosphoglycerate …: B1 D-3-phosphoglycerate … with R348G, T371F
B18: serA214: E. coli PGD variant with replacement T372A (protein, UniProt P0A9T0 2-410, looked up, variant T372A)
D-3-phosphoglycerate …: B1 D-3-phosphoglycerate … with R348G, T371A
B19: serA218: E. coli PGD variant with replacement T372N (protein, UniProt P0A9T0 2-410, looked up, variant T372N)
D-3-phosphoglycerate …: B1 D-3-phosphoglycerate … with R348G, T371N
B20: serA221: E. coli PGD variant with replacement T372Q (protein, UniProt P0A9T0 2-410, looked up, variant T372Q)
D-3-phosphoglycerate …: B1 D-3-phosphoglycerate … with R348G, T371Q
B21: serA222: E. coli PGD variant with replacement T372V (protein, UniProt P0A9T0 2-410, looked up, variant T372V)
D-3-phosphoglycerate …: B1 D-3-phosphoglycerate … with R348G, T371V
B22: serA226: E. coli PGD variant with replacement T372L (protein, UniProt P0A9T0 2-410, looked up, variant T372L)
D-3-phosphoglycerate …: B1 D-3-phosphoglycerate … with R348G, T371L
B23: serA228: E. coli PGD variant with replacement T372M (protein, UniProt P0A9T0 2-410, looked up, variant T372M)
D-3-phosphoglycerate …: B1 D-3-phosphoglycerate … with R348G, T371M
B24: serA231: E. coli PGD variant with replacement T372C (protein, UniProt P0A9T0 2-410, looked up, variant T372C)
D-3-phosphoglycerate …: B1 D-3-phosphoglycerate … with R348G, T371C
B25: serA20: E. coli PGD variant with replacement T372I (protein, UniProt P0A9T0 2-410, looked up, variant T372I)
D-3-phosphoglycerate …: B1 D-3-phosphoglycerate … with R348G, T371I
B26: serA11: E. coli PGD variant with replacement T372Y (protein, UniProt P0A9T0 2-410, looked up, variant T372Y)
D-3-phosphoglycerate …: B1 D-3-phosphoglycerate … with R348G, T371Y
B27: serA219: E. coli PGD variant with replacement T372G (protein, UniProt P0A9T0 2-410, looked up, variant T372G)
D-3-phosphoglycerate …: B1 D-3-phosphoglycerate … with R348G, T371G

Columns and labels:
[1] = system: 3-phosphoglycerate dehydrogenase (PGD); assay: PGD enzyme activity in crude extracts (McKitrick and Pizer test); type: biochemical, Escherichia coli; conditions: crude extract of strain expressing plasmid-encoded serA allele; backward reaction, NADH oxidation at 340 nm
Excerpt: (§1) For example, the PGD activity can be determined in analogy with the method described by McKitrick and Pizer (1980, J. Bacteriol. 141:235-245). The backward reaction is used to measure the enzyme activity in an assay sample which contains phosphohydroxypyruvate and NADH/H^+. The reaction is started by adding enzyme and is monitored in a spectrophotometer by way of the decrease in extinction at 340 nm which is caused by oxidation of the NADH/H^+.
(§2) At an optical density of 1.0, serA expression was in each case induced by adding 0.4 mM […] and the culture was incubated for a further 3 hours. The cells were subsequently harvested by centrifugation, washed and resuspended in 2 ml of buffer (100 mM K-phosphate, pH 7.0; 10 mM MgCl2; 1 mM dithiothreitol). The cells were disrupted using a French press (Spectronic Instruments, Inc. Rochester, N.Y., USA) at a pressure of 18 000 psi. The crude extracts were clarified by centrifugation at 30 000 g and PGD activity was determined using the McKitrick and Pizer test (1980, J. Bacteriol. 141:235-245).

[2] = molecular target: 3-phosphoglycerate dehydrogenase (PGD); assay: Inhibition of PGD activity by L-serine, inhibitor constant Ki; type: biochemical, Escherichia coli; conditions: Ki = inhibitor concentration at which activity is 50% of activity without inhibitor
Excerpt: as §1, §2

| Molecule | Activity [1] [units/mg] | Ki [2] [mM] |
| --- | --- | --- |
| B1 | 0.04 | 15 |
| B2 | 0.02 | 8 |
| B3 | 0.05 | 6 |
| B4 | 0.05 | 10 |
| B5 | 0.05 | 10 |
| B6 | 0.05 | 15 |
| B7 | 0.05 | 15 |
| B8 | 0.04 | 5 |
| B9 | 0.05 | < 0.1 |
| B10 | 0.05 | 25 |
| B11 | 0.05 | 5 |
| B12 | 0.05 | 1 |
| B13 | 0.05 | 20 |
| B14 | 0.05 | 1 |
| B15 | 0.05 | 80 |
| B16 | 0.04 | 60 |
| B17 | 0.05 | 60 |
| B18 | 0.04 | 10 |
| B19 | 0.05 | 100 |
| B20 | 0.05 | 100 |
| B21 | 0.05 | 40 |
| B22 | 0.04 | 40 |
| B23 | 0.03 | 60 |
| B24 | 0.02 | 3 |
| B25 | 0.05 | 40 |
| B26 | 0.05 | 35 |
| B27 | 0.05 | 8 |
